Measurements: US20110118131A1 (published 2011)
Positions count from the first letter of the chain named. Names and notes keep the numbering of the source.

B1: XPA23 light chain D28S (Fab, V domains shown)
VH: EVQLLESGGGLVQPGGSLRLSCAASGFTFSKYFMFWVRQAPGKGLEWVSVISPSGGMTRYADSVKGRFTISRDNSKNTLYLQMNSLRAEDTAVYYCARVGYGGNSDYWGQGTLVTVSS
VL: DIQMTQSPSSVSASVGDRLTIICRASQSINRWLAWYQQTPGNAPKLLIHSATSLQSGVPSRFSGSGSGTDFTLTINSLQPEDFATYYCQQADSFPLTFGGGTKVEIK
B2: XPA23 light chain D92Q (Fab, V domains shown)
VH: B1 VH
VL: B1 VL with S28D, D92Q
B3: XPA23 light chain D28Y (Fab, V domains shown)
VH: B1 VH
VL: B1 VL with S28Y
B4: XPA23 light chain H49W (Fab, V domains shown)
VH: B1 VH
VL: B1 VL with S28D, H49W
B5: XPA23 light chain H49D (Fab, V domains shown)
VH: B1 VH
VL: B1 VL with S28D, H49D
B6: XPA23 light chain F94H (Fab, V domains shown)
VH: B1 VH
VL: B1 VL with S28D, F94H
B7: XPA23 light chain D28T (Fab, V domains shown)
VH: B1 VH
VL: B1 VL with S28T
B8: XPA23 light chain H49F (Fab, V domains shown)
VH: B1 VH
VL: B1 VL with S28D, H49F
B9: XPA23 light chain F94E (Fab, V domains shown)
VH: B1 VH
VL: B1 VL with S28D, F94E
B10: XPA23 light chain F94R (Fab, V domains shown)
VH: B1 VH
VL: B1 VL with S28D, F94R
B11: XPA23 light chain D92K (Fab, V domains shown)
VH: B1 VH
VL: B1 VL with S28D, D92K
B12: XPA23 light chain D92F (Fab, V domains shown)
VH: B1 VH
VL: B1 VL with S28D, D92F
B13: XPA23 light chain D92Y (Fab, V domains shown)
VH: B1 VH
VL: B1 VL with S28D, D92Y
B14: XPA23 light chain F94S (Fab, V domains shown)
VH: B1 VH
VL: B1 VL with S28D, F94S
B15: XPA23 light chain L96D (Fab, V domains shown)
VH: B1 VH
VL: B1 VL with S28D, L96D
B16: XPA23 light chain D92H (Fab, V domains shown)
VH: B1 VH
VL: B1 VL with S28D, D92H
B17: XPA23 light chain F94W (Fab, V domains shown)
VH: B1 VH
VL: B1 VL with S28D, F94W
B18: XPA23 light chain H49L (Fab, V domains shown)
VH: B1 VH
VL: B1 VL with S28D, H49L
B19: XPA23 light chain D28V (Fab, V domains shown)
VH: B1 VH
VL: B1 VL with S28V
B20: XPA23 light chain D92S (Fab, V domains shown)
VH: B1 VH
VL: B1 VL with S28D, D92S
B21: XPA23 light chain F94Q (Fab, V domains shown)
VH: B1 VH
VL: B1 VL with S28D, F94Q
B22: XPA23 light chain H49P (Fab, V domains shown)
VH: B1 VH
VL: B1 VL with S28D, H49P
B23: XPA23 light chain F94K (Fab, V domains shown)
VH: B1 VH
VL: B1 VL with S28D, F94K
B24: XPA23 light chain H49E (Fab, V domains shown)
VH: B1 VH
VL: B1 VL with S28D, H49E
B25: XPA23 light chain H49A (Fab, V domains shown)
VH: B1 VH
VL: B1 VL with S28D, H49A
B26: XPA23 light chain D92N (Fab, V domains shown)
VH: B1 VH
VL: B1 VL with S28D, D92N
B27: XPA23 light chain H49Y (Fab, V domains shown)
VH: B1 VH
VL: B1 VL with S28D, H49Y
B28: XPA23 light chain H49S (Fab, V domains shown)
VH: B1 VH
VL: B1 VL with S28D, H49S
B29: XPA23 light chain H49N (Fab, V domains shown)
VH: B1 VH
VL: B1 VL with S28D, H49N
B30: XPA23 light chain H49R (Fab, V domains shown)
VH: B1 VH
VL: B1 VL with S28D, H49R
B31: XPA23 light chain F94Y (Fab, V domains shown)
VH: B1 VH
VL: B1 VL with S28D, F94Y
B32: XPA23 light chain D92R (Fab, V domains shown)
VH: B1 VH
VL: B1 VL with S28D, D92R
B33: XPA23 light chain H49T (Fab, V domains shown)
VH: B1 VH
VL: B1 VL with S28D, H49T
B34: XPA23 light chain H49K (Fab, V domains shown)
VH: B1 VH
VL: B1 VL with S28D, H49K
B35: XPA23 light chain D92E (Fab, V domains shown)
VH: B1 VH
VL: B1 VL with S28D, D92E
B36: XPA23 light chain D28W (Fab, V domains shown)
VH: B1 VH
VL: B1 VL with S28W
B37: XPA23 light chain F94N (Fab, V domains shown)
VH: B1 VH
VL: B1 VL with S28D, F94N
B38: XPA23 light chain H49Q (Fab, V domains shown)
VH: B1 VH
VL: B1 VL with S28D, H49Q
B39: XPA23 light chain H49G (Fab, V domains shown)
VH: B1 VH
VL: B1 VL with S28D, H49G
B40: XPA23 light chain H49I (Fab, V domains shown)
VH: B1 VH
VL: B1 VL with S28D, H49I
B41: XPA23 light chain D92W (Fab, V domains shown)
VH: B1 VH
VL: B1 VL with S28D, D92W
B42: XPA23 light chain F94D (Fab, V domains shown)
VH: B1 VH
VL: B1 VL with S28D, F94D
B43: XPA23 light chain H49V (Fab, V domains shown)
VH: B1 VH
VL: B1 VL with S28D, H49V

Target: T1, IL-1β (UniProt P01584 117-269)
T1 construct: Antigen immobilised on the Biacore chip
Experiment: Biacore, periplasmic extract

| Binder | fold difference in affinity vs original | binding result |
| --- | --- | --- |
| B1 | 5.25 fold |  |
| B2 | 0.56 fold |  |
| B3 | 1.45 fold |  |
| B4 | 0.21 fold |  |
| B5 | 0.11 fold |  |
| B6 |  | no binding |
| B7 | 1.19 fold |  |
| B8 | 0.5 fold |  |
| B9 |  | no binding |
| B10 |  | no binding |
| B11 | 0.23 fold |  |
| B12 | 0.26 fold |  |
| B13 |  | no binding |
| B14 |  | no binding |
| B15 |  | no binding |
| B16 | 0.63 fold |  |
| B17 |  | no binding |
| B18 | 0.07 fold |  |
| B19 | 0.85 fold |  |
| B20 | 6.59 fold |  |
| B21 |  | no binding |
| B22 | 0.86 fold |  |

| Binder | fold difference in affinity vs original | binding result |
| --- | --- | --- |
| B23 |  | no binding |
| B24 |  | no binding |
| B25 | 0.23 fold |  |
| B26 | 0.67 fold |  |
| B27 | 0.52 fold |  |
| B28 | 0.14 fold |  |
| B29 | 0.31 fold |  |
| B30 | 0.21 fold |  |
| B31 |  | no binding |
| B32 |  | no binding |
| B33 |  | no binding |
| B34 | 0.1 fold |  |
| B35 | 0.99 fold |  |
| B36 | 3.81 fold |  |
| B37 |  | no binding |
| B38 |  | no binding |
| B39 |  | no binding |
| B40 |  | no binding |
| B41 | 0.12 fold |  |
| B42 |  | no binding |
| B43 |  | no binding |
